Target: T1, RanGAP1 (human, UniProt P46060 1-587)
T1 sequence: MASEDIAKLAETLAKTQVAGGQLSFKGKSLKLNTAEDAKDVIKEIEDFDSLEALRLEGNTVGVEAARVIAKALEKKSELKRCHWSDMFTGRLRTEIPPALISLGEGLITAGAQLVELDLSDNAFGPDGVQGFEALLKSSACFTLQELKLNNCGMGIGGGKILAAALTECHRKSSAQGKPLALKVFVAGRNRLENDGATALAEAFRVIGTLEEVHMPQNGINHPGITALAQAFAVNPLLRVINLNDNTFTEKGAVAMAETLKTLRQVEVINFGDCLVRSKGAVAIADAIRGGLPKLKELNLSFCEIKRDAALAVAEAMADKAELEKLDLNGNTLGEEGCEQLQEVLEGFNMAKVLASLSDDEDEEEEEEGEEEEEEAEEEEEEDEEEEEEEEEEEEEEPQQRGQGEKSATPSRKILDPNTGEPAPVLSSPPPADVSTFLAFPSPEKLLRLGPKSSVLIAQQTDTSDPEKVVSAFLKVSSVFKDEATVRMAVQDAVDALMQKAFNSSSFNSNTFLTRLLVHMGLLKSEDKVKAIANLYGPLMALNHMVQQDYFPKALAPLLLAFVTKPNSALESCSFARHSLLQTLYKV
Assay: EMSA

GGGGCCGGGGCCGGGGCCGGGGCC (structured_RNA) [(G4C2)4 G-quadruplex]
apparent K (half saturation): 162 nM
